From patent US20170073690A1 (CEMM FORSCHUNGZENTRUM FUER MOLEKULARE MEDIZIN, published 2017)

Experiments:
[1] = target: T1, RAGA (human, UniProt Q7L523 1-313); assay: anti-HA co-IP of tagged deletion construct from HEK293T, immunoblot (FIG. 2D)
T1 construct: Endogenous, or N-terminally tagged as bait; RAG GTPases act as heterodimers of RAGA/B with RAGC/D; also called RAG GTPase A
Excerpt: (§1) Proteins filtered using SAINT³⁵ that interacted with at least five bait proteins were retained. Previously published interactors of the Ragulator complex and RAG GTPases that were also detected are highlighted. b, Tabular view of spectral counts (maximum of biological replicate) and sequence coverage (percentage) of the core Ragulator network and published interactors detected. c HEK293T cells were transfected with the indicated constructs or empty vector (−). […] Anti-HA immunoprecipitates and cell extracts were analysed by immunoblot with the indicated antibodies. Deletion constructs are labelled with the number of the encoded amino acids (d) and point mutants with the amino acid motif substituted to alanine (e).
(§2) Cells were transfected with Polyfect (Qiagen) and used for experiments after 24 hours. For lysis, cells were resuspended in Nonidet-40 lysis buffer (1% NP-40, 50 mM Hepes pH7.4, 250 mM NaCl, 5 mM EDTA, Halt phosphatase inhibitor cocktail (ThermoScientific), one tablet of EDTA-free protease inhibitor (Roche) per 50 ml) on ice for 5 min. Lysates were cleared by centrifugation in a microcentrifuge (13000 r.p.m., 10 min, 4 C). Proteins were quantified with BCA (Pierce). […]

[2] = target: T2, LAMTOR1 (human, UniProt Q6IAA8 2-161); assay: as above
T2 construct: Endogenous in HEK293/HEK293T cells, or C-terminally tagged (V5 or SII-HA) when used as bait
Excerpt: as §1, §2

[3] = target: T1, RAGA; assay: anti-HA co-IP of tagged point mutant from HEK293T, immunoblot (FIG. 2E)
Excerpt: as §1
(§3) Cells were transfected with Polyfect (Qiagen) and used for experiments after 24 hours. For lysis, cells were resuspended in Nonidet-40 lysis buffer (1% NP-40, 50 mM Hepes pH7.4, 250 mM NaCl, 5 mM EDTA, Halt phosphatase inhibitor cocktail (ThermoScientific), one tablet of EDTA-free protease inhibitor (Roche) per 50 ml) on ice for 5 min. Lysates were cleared by centrifugation in a microcentrifuge (13000 r.p.m., 10 min, 4 C). Proteins were quantified with BCA (Pierce). For immunoprecipitations, lysates were precleared on Sepharose6 beads (Sigma) (40 min. with rotation, 4° C.) and then incubated either with HA- or V5-coupled beads (3 h with rotation, 4° C.) or with primary antibody and protein G-sepharose (GE healthcare) (14 h with rotation, 4° C.). Beads were recovered and washed four times with lysis buffer before analysis by SDS-PAGE and immunoblotting.

[4] = target: T3, RAGC (human, UniProt Q9HB90 1-399); assay: as above
T3 construct: Endogenous, or N-terminally tagged as bait; also called RAG GTPase C
Excerpt: as §1, §3

[5] = target: T2, LAMTOR1; assay: as above
Excerpt: as §1, §3

[6] = target: T4, LAMTOR3 (human, UniProt Q9UHA4 1-124, limits assumed); assay: as above
T4 construct: also called SII-HA-LAMTOR 3
Excerpt: as §1, §3

[7] = target: LAMTOR5 (human, UniProt O43504 1-91); assay: TAP-LC-MS/MS, SII-HA-tagged bait, HEK293 Flp-In TREx cells
Protocol: (§4) Tandem affinity STREP-HA purifications were performed as previously described³. In brief, cells were stimulated with doxycycline/tetracycline for 24 h to induce expression of SII-HA-tagged bait proteins. Induction of SII-HA-LAMTOR 3 was combined with 9 h starvation in serum free medium. Protein complexes were isolated by TAP using streptavidin agarose followed by elution with biotin, and a second purification step using HA-agarose beads. Proteins were eluted with 100 mM formic acid, neutralized with triethylammonium bicarbonate (TEAB) and digested with trypsin, and the peptides were analysed by LC-MS/MS.

[8] = target: LAMTOR4 (human, UniProt Q0VGL1 1-99); assay: as above
Protocol: as §4

[9] = target: T1, RAGA; assay: anti-HA co-IP of tagged full length point mutant from HEK293T, immunoblot (FIG. 9C)
[10] = target: T3, RAGC; assay: as above
[11] = target: T2, LAMTOR1; assay: as above
[12] = target: T4, LAMTOR3; assay: as above

T3 sequence (Q9HB90 whole entry): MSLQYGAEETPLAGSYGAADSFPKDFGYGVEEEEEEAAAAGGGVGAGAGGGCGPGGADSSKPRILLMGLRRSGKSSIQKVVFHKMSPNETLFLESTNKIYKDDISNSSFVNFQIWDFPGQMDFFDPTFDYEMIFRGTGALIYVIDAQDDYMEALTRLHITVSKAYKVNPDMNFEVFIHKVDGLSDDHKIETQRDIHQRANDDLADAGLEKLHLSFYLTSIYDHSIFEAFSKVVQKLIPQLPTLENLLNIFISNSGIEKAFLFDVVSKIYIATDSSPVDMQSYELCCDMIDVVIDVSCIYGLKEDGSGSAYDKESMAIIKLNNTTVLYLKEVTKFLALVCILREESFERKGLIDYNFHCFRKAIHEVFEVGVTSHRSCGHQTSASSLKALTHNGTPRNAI
T4 sequence (Q9UHA4 whole entry): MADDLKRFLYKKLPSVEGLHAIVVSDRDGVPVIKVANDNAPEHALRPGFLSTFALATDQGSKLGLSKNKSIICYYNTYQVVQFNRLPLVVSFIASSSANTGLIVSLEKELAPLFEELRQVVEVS
T2 sequence (Q6IAA8 2-161 limits assumed): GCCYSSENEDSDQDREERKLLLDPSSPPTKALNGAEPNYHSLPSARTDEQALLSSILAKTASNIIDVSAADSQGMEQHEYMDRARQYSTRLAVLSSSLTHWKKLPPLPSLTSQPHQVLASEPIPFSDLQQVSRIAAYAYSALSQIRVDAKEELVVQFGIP
T1 sequence (Q7L523 whole entry): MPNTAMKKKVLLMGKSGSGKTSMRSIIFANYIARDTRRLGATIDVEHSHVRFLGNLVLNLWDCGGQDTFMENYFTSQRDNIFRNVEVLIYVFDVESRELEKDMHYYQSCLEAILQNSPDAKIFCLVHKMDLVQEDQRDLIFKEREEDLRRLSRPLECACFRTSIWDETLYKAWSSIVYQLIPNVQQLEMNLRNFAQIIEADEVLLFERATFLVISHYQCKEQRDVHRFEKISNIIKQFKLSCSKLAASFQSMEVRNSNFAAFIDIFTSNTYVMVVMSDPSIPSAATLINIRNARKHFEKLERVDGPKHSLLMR

binding result [3] | binding result [4] | binding result [5] | binding result [6] | binding result [9] | binding result [10] | binding result [11] | binding result [12] | Binder | other results
no binding | no binding | no binding | no binding | – | – | – | – | SLC38A9 cytoplasmic region with motif 70YYSR73 mutated to alanine (other, also called 70YYSR73 mutant (cytoplasmic region); not shown: N-terminal HA-containing tag) MANMNSDSRHLGTSEVDHERDPGPMNIQFEPSDLRSKRPFCIEPTNIVNVNHVIQRVSDHASAMNKRIHAAAALTTPADKALIAPDHVVPAPEECYVYSPLGSAYKLQSYTE | –
– | – | – | – | no binding | no binding | no binding | no binding | full length SLC38A9 with motif 38RPF40 mutated to alanine (other, also called 38RPF40 mutant (full length); not shown: N-terminal HA-containing tag) MANMNSDSRHLGTSEVDHERDPGPMNIQFEPSDLRSKAAACIEPTNIVNVNHVIQRVSDHASAMNKRIHYYSRLTTPADKALIAPDHVVPAPEECYVYSPLGSAYKLQSYTEGYGKNTSLVTIFMIWNTMMGTSILSIPWGIKQAGFTTGMCVIILMGLLTLYCCYRVVKSRTMMFSLDTTSWEYPDVCRHYFGSFGQWSSLLFSLVSLIGAMIVYWVLMSNFLFNTGKFIFNFIHHINDTDTILSTNNSNPVICPSAGSGGHPDNSSMIFYANDTGAQQFEKWWDKSRTVPFYLVGLLLPLLNFKSPSFFSKFNILGTVSVLYLIFLVTFKAVRLGFHLEFHWFIPTEFFVPEIRFQFPQLTGVLTLAFFIHNCIITLLKNNKKQENNVRDLCIAYMLVTLTYLYIGVLVFASFPSPPLSKDCIEQNFLDNFPSSDTLSFIARIFLLFQMMTVYPLLGYLARVQLLGHIFGDIYPSIFHVLILNLIIVGAGVIMACFYPNIGGIIRYSGAACGLAFVFIYPSLIYIISLHQEERLTWPKLIFHVFIIILGVANLIVQFFM | –
– | – | – | – | no binding | no binding | no binding | no binding | full length SLC38A9 with motif 70YYSR73 mutated to alanine (other, also called 70YYSR73 mutant (full length); not shown: N-terminal HA-containing tag) MANMNSDSRHLGTSEVDHERDPGPMNIQFEPSDLRSKRPFCIEPTNIVNVNHVIQRVSDHASAMNKRIHAAAALTTPADKALIAPDHVVPAPEECYVYSPLGSAYKLQSYTEGYGKNTSLVTIFMIWNTMMGTSILSIPWGIKQAGFTTGMCVIILMGLLTLYCCYRVVKSRTMMFSLDTTSWEYPDVCRHYFGSFGQWSSLLFSLVSLIGAMIVYWVLMSNFLFNTGKFIFNFIHHINDTDTILSTNNSNPVICPSAGSGGHPDNSSMIFYANDTGAQQFEKWWDKSRTVPFYLVGLLLPLLNFKSPSFFSKFNILGTVSVLYLIFLVTFKAVRLGFHLEFHWFIPTEFFVPEIRFQFPQLTGVLTLAFFIHNCIITLLKNNKKQENNVRDLCIAYMLVTLTYLYIGVLVFASFPSPPLSKDCIEQNFLDNFPSSDTLSFIARIFLLFQMMTVYPLLGYLARVQLLGHIFGDIYPSIFHVLILNLIIVGAGVIMACFYPNIGGIIRYSGAACGLAFVFIYPSLIYIISLHQEERLTWPKLIFHVFIIILGVANLIVQFFM | –
– | – | – | – | no binding | no binding | no binding | no binding | full length SLC38A9 with motif 85PDH87 mutated to alanine (other, also called 85PDH87 mutant (full length); not shown: N-terminal HA-containing tag) MANMNSDSRHLGTSEVDHERDPGPMNIQFEPSDLRSKRPFCIEPTNIVNVNHVIQRVSDHASAMNKRIHYYSRLTTPADKALIAAAAVVPAPEECYVYSPLGSAYKLQSYTEGYGKNTSLVTIFMIWNTMMGTSILSIPWGIKQAGFTTGMCVIILMGLLTLYCCYRVVKSRTMMFSLDTTSWEYPDVCRHYFGSFGQWSSLLFSLVSLIGAMIVYWVLMSNFLFNTGKFIFNFIHHINDTDTILSTNNSNPVICPSAGSGGHPDNSSMIFYANDTGAQQFEKWWDKSRTVPFYLVGLLLPLLNFKSPSFFSKFNILGTVSVLYLIFLVTFKAVRLGFHLEFHWFIPTEFFVPEIRFQFPQLTGVLTLAFFIHNCIITLLKNNKKQENNVRDLCIAYMLVTLTYLYIGVLVFASFPSPPLSKDCIEQNFLDNFPSSDTLSFIARIFLLFQMMTVYPLLGYLARVQLLGHIFGDIYPSIFHVLILNLIIVGAGVIMACFYPNIGGIIRYSGAACGLAFVFIYPSLIYIISLHQEERLTWPKLIFHVFIIILGVANLIVQFFM | –

The next lines start with the binder.

Binder | binding result [3] | binding result [4] | binding result [5] | binding result [6] | binding result [9] | binding result [10] | binding result [11] | binding result [12] | other results
SLC38A9 N-terminal cytoplasmic tail deletion construct (amino acids 1-111, or amino acids 1-112) (other, also called cytoplasmic region of SLC38A9; not shown: N-terminal HA-containing tag (Strep-HA, vector pTO-SII-HA-GW)) MANMNSDSRHLGTSEVDHERDPGPMNIQFEPSDLRSKRPFCIEPTNIVNVNHVIQRVSDHASAMNKRIHYYSRLTTPADKALIAPDHVVPAPEECYVYSPLGSAYKLQSYTE | – | – | – | – | – | – | – | – | binding result [1]: binds; binding result [2]: binds
SLC38A9 cytoplasmic region with motif 38RPF40 mutated to alanine (other, also called 38RPF40 mutant (cytoplasmic region); not shown: N-terminal HA-containing tag) MANMNSDSRHLGTSEVDHERDPGPMNIQFEPSDLRSKAAACIEPTNIVNVNHVIQRVSDHASAMNKRIHYYSRLTTPADKALIAPDHVVPAPEECYVYSPLGSAYKLQSYTE | no binding | no binding | no binding | no binding | – | – | – | – | –
SLC38A9 cytoplasmic region with motif 85PDH87 mutated to alanine (other, also called 85PDH87 mutant (cytoplasmic region); not shown: N-terminal HA-containing tag) MANMNSDSRHLGTSEVDHERDPGPMNIQFEPSDLRSKRPFCIEPTNIVNVNHVIQRVSDHASAMNKRIHYYSRLTTPADKALIAAAAVVPAPEECYVYSPLGSAYKLQSYTE | no binding | no binding | no binding | no binding | – | – | – | – | –
SLC38A1 (other, N-terminally SII-HA tagged bait) MMHFKSGLELTELQNMTVPEDDNISNDSNDFTEVENGQINSKFISDRESRRSLTNSHLEKKKCDEYIPGTTSLGMSVFNLSNAIMGSGILGLAFALANTGILLFLVLLTSVTLLSIYSINLLLICSKETGCMVYEKLGEQVFGTTGKFVIFGATSLQNTGAMLSYLFIVKNELPSAIKFLMGKEETFSAWYVDGRVLVVIVTFGIILPLCLLKNLGYLGYTSGFSLSCMVFFLIVVIYKKFQIPCIVPELNSTISANSTNADTCTPKYVTFNSKTVYALPTIAFAFVCHPSVLPIYSELKDRSQKKMQMVSNISFFAMFVMYFLTAIFGYLTFYDNVQSDLLHKYQSKDDILILTVRLAVIVAVILTVPVLFFTVRSSLFELAKKTKFNLCRHTVVTCILLVVINLLVIFIPSMKDIFGVVGVTSANMLIFILPSSLYLKITDQDGDKGTQRIWAALFLGLGVLFSLVSIPLVIYDWACSSSSDEGH | – | – | – | – | – | – | – | – | binding result [7]: no binding; binding result [8]: no binding
